Data on one molecule can be found in patent US12122830 (ABL BIO, dated 2024).

Test [1] concerns the target T1, human ROR1 expressed on the cell surface (human, UniProt Q01973 30-937).
T1 construct: whole, on cells; On JeKo-1 and Mino cells and other cancer cell lines (endogenous) and on transfected CHO and MC38 cells; also called cell surface-expressed ROR1; CHO-human ROR1
Put plainly: flow cytometry on NCI-H1975 cells (lung cancer), C2E3 IgG at 10 µg/mL, MFI of anti-ROR1 / MFI of 2nd Ab. As for the experimental part: (§1) For the cell lines, the binding to ROR1 was analyzed with FACS (FACSCalibur, BD Biosciences) by using the anti-ROR1 antibody of the present invention.
(§2) Specifically, after disassociating each cell line and washing in PBS, the number of cells was counted and set as 2 ×10^5 cells/200 µl PBS, and then the clone C2E3 among ROR1 monoclonal antibodies prepared in Example 3 was treated in 10 µg/mL, and it was reacted at 4° C. for 1 hour. After reaction, cells were washed in PBS, and then the FITC-labeled constant region (Fc)-specific antibody (Goat anti-human IgG FITC conjugate, Fc specific, Sigma, F9512, concentration: 2.0 mg/ml) was suspended in 2 µl/1 ×10^5 cells/200 µl PBS, and it was reacted at 4° C. for 1 hour. After reaction, cells were washed in PBS, it was analyzed using a FACSCalibur device. The negative control group was treated only with the FITC-labeled constant region (Fc)-specific antibody. To compare the expression degrees of ROR1 among the cancer cell lines, the value of the result for the peak shift in the experimental group treated with the ROR1 monoclonal antibody (C2E3) of the present invention was divided by the result for the peak shift in the control group (Mean Fluorescence Intensity Ratio MFI Ratio: MFI of anti-ROR1/MFI of 2nd Ab).
A general note: Flow cytometry measures light scatter and fluorescence of single cells or particles in a stream.

In test [2] the target is T2, recombinant mouse ROR1 protein (Acrobiosystems, RO1-M5221) (mouse, UniProt Q9Z139 30-406).
T2 construct: extracellular domain; Bought; also called mouse ROR1 antigen
The experiment in a line: ELISA, recombinant mouse ROR1 protein coated at 1 µg/ml, IgG titrated, HRP anti-Fab detection. As for the experimental part:
The anti-ROR1 antibody-antigen binding affinity was estimated by using an ELISA-based solution binding test. Specifically, a 96-well microtiter plate (Nunc-Immuno Plates, NUNC) was coated with the ROR1 protein at a concentration of 1 µg/ml in a PBS solution as described below at 4° C. for 16 hours, and non-specific binding sites were blocked with 3% BSA (bovine serum albumin) for 2 hours. For this, as the ROR1 protein, in case of human ROR1, ROR1-Fc of Example 1 or recombinant ROR1-His (Sino Biological, 13968-H08H) was used. The ROR1-His used for ELISA was a protein of sino biological company (13968-H08H) as described in the above sentence, and ROR1-His of Example 1 or recombinant mouse ROR1 protein was used (Acrobiosystems, RO1-M5221-100 µg).
Then, after adding the anti-ROR1 antibody prepared in Example 3 at the concentration described in FIG. 2 into the microtiter plate on a 96-well microtiter plate, the binding capacity was analyzed with ELISA as follows. Specifically, after constant temperature treatment for 2 hours, the plate was washed with PBS comprising 0.05% tween 20 5 times, and then a HRP-conjugated Fab multiclonal antibody reagent (Pierce, 31414) was diluted at 1:10,000 ratio, and was put into the washed microtiter plate, and it was incubated at 37° C. for 1 hour, and the ROR1 antibody bound to the plate was detected. After reaction, it was color-developed by using TMB (Tetramethylbenzidine, Sigma, T0440). The enzymatic reaction was stopped by 0.5 mol/L of sulfuric acid, and the absorbances at 450 nm and 650 nm were measured by using a micro plate reader device (molecular device) (450 nm-650 nm).
A general note: An ELISA detects its analyte on a solid surface through an enzyme-linked reagent.

For test [3], the target named is T1, human ROR1 expressed on the cell surface. The experiment in a line: flow cytometry on H1437 cells (lung cancer), C2E3 IgG at 10 µg/mL, MFI of anti-ROR1 / MFI of 2nd Ab. As for the experimental part: as §1, §2
For test [4] the target is unchanged. Put plainly: flow cytometry on 697 cells (ALL), C2E3 IgG at 10 µg/mL, MFI of anti-ROR1 / MFI of 2nd Ab. The procedure:
as §1, §2

Test [5] has the same target. The experiment in a line: flow cytometry on MDA-MB-468 cells (breast cancer), C2E3 IgG at 10 µg/mL, MFI of anti-ROR1 / MFI of 2nd Ab. The procedure:
as §1, §2

Test [6] shares this target. The experiment in a line: flow cytometry on SNU-16 cells (gastric cancer), C2E3 IgG at 10 µg/mL, MFI of anti-ROR1 / MFI of 2nd Ab. As for the experimental part:
as §1, §2

Test [7] shares this target. Put plainly: flow cytometry on HCC1187 cells (breast cancer), C2E3 IgG at 10 µg/mL, MFI of anti-ROR1 / MFI of 2nd Ab. The procedure:
as §1, §2

Test [8] has the same target. The experiment in a line: flow cytometry on H460 cells (lung cancer), C2E3 IgG at 10 µg/mL, MFI of anti-ROR1 / MFI of 2nd Ab. The procedure: as §1, §2
Test [9] shares this target. Put plainly: flow cytometry on HT29 cells (colon cancer), C2E3 IgG at 10 µg/mL, MFI of anti-ROR1 / MFI of 2nd Ab. As for the experimental part:
as §1, §2

Test [10] shares this target. Put plainly: flow cytometry on BT474 cells (breast cancer), C2E3 IgG at 10 µg/mL, MFI of anti-ROR1 / MFI of 2nd Ab. The procedure: as §1, §2
Test [11] has the same target. The experiment in a line: flow cytometry on BT20 cells (breast cancer), C2E3 IgG at 10 µg/mL, MFI of anti-ROR1 / MFI of 2nd Ab. As for the experimental part: as §1, §2

T1 sequence (Q01973 30-937): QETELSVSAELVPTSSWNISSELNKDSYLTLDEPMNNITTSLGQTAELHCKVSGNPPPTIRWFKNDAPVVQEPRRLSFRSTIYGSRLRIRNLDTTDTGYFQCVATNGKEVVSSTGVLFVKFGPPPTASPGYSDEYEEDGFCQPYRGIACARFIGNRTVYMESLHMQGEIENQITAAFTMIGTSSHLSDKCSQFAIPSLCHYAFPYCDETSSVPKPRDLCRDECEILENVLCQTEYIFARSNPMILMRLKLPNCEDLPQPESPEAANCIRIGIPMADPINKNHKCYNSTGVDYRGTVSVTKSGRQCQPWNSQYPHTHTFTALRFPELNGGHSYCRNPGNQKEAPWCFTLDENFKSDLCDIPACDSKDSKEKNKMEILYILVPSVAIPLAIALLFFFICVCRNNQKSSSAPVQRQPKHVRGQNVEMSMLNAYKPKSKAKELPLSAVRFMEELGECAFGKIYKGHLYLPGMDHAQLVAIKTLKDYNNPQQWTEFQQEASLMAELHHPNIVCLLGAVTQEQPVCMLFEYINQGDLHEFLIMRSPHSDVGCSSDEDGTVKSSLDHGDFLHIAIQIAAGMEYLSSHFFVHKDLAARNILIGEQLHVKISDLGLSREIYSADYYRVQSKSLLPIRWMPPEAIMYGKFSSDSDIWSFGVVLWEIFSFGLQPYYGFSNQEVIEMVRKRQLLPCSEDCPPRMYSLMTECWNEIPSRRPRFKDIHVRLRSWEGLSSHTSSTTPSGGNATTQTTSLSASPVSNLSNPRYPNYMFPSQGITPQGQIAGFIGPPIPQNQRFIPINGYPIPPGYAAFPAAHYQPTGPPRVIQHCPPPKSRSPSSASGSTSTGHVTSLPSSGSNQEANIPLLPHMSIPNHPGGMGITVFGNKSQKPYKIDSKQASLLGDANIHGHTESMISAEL
T2 sequence (Q9Z139 30-406): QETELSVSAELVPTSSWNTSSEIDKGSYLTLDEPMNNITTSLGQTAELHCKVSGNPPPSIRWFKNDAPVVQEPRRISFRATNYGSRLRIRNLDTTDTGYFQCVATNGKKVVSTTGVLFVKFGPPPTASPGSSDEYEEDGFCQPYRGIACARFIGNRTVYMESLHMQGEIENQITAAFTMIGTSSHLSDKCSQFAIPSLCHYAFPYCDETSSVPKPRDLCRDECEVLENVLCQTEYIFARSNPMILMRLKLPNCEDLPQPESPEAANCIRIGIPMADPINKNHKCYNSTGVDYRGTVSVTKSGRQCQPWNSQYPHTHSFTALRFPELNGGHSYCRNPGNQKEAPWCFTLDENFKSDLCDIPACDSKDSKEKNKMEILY

B1: C2E3 anti-ROR1 IgG antibody (antibody, V domains shown)
VH: EVQLLESGGGLVQPGGSLRLSCAASGFTFSNYAMSWVRQAPGKGLEWVSSISHNSGSTYYADSVKGRFTISRDNSKNTLYLQMNSLRAEDTAVYYCAKFISARKSLGRSYSNGMDVWGQGTLVTVSS
VL: QSVLTQPPSASGTPGQRVTISCTGSSSNIGSNDVTWYQQLPGTAPKLLIYADSKRPSGVPDRFSGSKSGTSASLAISGLRSEDEADYYCGTWDYSLSGYVFGGGTKLTVLG
On to B1, for which the “Mean Fold Ratio” value in [1] was determined as 4.2; in [3] it was 4.1; in test [4], 12; in test [5] it was 6.4; in [6], 2.4; in test [7], 9.3. Besides, the “Mean Fold Ratio” value is 10.9 in test [8], 3.9 in test [9], 1.7 in test [10] and 3 in test [11]. For the same molecule, the binding result in test [2] is recorded as “binds”.
